Measurements taken from the DeepSol protein solubility set.

assay: soluble on expression in E. coli; label from the status in PepcDB or PDB records

Row | Sequence | soluble on expression in E. coli
1 | MAHHHHHHMRPSHKRQAQRQHPRQQCSVAHKAQRAPSSVHGTSGVEHLPRDAVVHVALRKQHRPAGQAHRRIKRHRVVPRRHKVAPHKYHSGARHAHSPTHRHRVLAQQEVAVNKRRNRAANCRNTALHRHAQPQRRLHKKPVHVQRTARRQRHAANHQHANSVAEHRRQLRARDVQHAPRQIHVV | soluble
2 | MAHHHHHHMRSNRNGSHSFFFLSVYSWFIFSPFEVFDDEYFLVDEKEKYVFLFVFVFMEEKRICVVVFPVPKVHAAAEIVIVDAVLFPHAADTDELKLCHF | not soluble
3 | MAHHHHHHMRVALIFGITGQDGSYLSELLLEKNYHVHGVIRRCSSFNTKRIDHIFDKLILHYGDLLDSSNICSLICEIKPNEIYNLAAQSHVKVSFEMPEYTTEATALGTLRILEGIRISKVKNIKFYNASTSELFGKVQCPIQNENTPFYPVSPYAIAKLYAHYITINYRESYNMFCINGILFNHESPRRGETFVTRKITRGIAKIQKKLETSIILGNIDTYRDWGHAKDYVYAMYLMLQQNEADDFVICSNEQHSVREFCEISFSFVNIHIKWIGKGIQEIGVDQNNNVLIKKHEKYFRNCEVNTLLGDCSKAKNILKWEPTYTFTQLVYEMLKCDMQDYNLSMDDYDTCMKKYDTYKMGKKQ | not soluble
4 | MAHHHHHHMRVFVLVAVRSGDGGVATYPPSVWHLQQCVRARSASCCHATSGGYLWTRDALFRALRRTHVDGAPASVLENAGASQRAKAAAPPCFYFFSALLDVGNNEEDVDLVALLLMELCVAWPNAIAAHMEVCRVCRGELSPAHASSPLAATLGEGETDEPSWQLEHFTREEALLVLLSDEIEATAATQDDFLTRWGVHNAWDHHRALQGRSWWVSGGIVAVLPSEAATRLVEPFLMLELSRMENGCPQLSRHPASCRDSSQTLEEALTHAILERELSHSVRAYLRNEVEGRIESRRLHRMTTVVPPAMALFLRGAPSSVLHECLLYHTVDCPLFPVEGGGCDAAQSSTDRATGLVAPAASPTAFLRPVKSGLSSTDLLERQRLVARDETSRLTELFCEYDLLLSGDGYVRVPLAPVSRYVFTQLLCQSELPSALMLALMRRHSDVTRRAGDMGHRIDPAAVSSRLPPPTEEEVVLGIKVTWAVTRWTAALQRGAAAAPPVGLPMWNEEQSLRKDKLCGWIRERMRKAKREAAELYSLEDAADTRATGREEDGVASTVSALPVASGDTADPLRRCRGAALEQLERRLFAPFPSSYRGSSTEWLGQALRDVAREQRHAASNMAQRDDVRASYAGPAPAARRAASPNVLDNSSSASDSDGTSDDGSEGAGGVGTPTRQETESLLAQLTELEVVLQNELASRTAIPLACGGDSRTTDSRLGVGDAVTGDQEMDVTSWLTAADMQQVTRNELFLHHVQLLESEMEQDQ | not soluble
5 | MAHHHHHHMRYFRVLHNFDAQDGVELTVKKGETVFTAESEVREGWIKVEVLHDPRRRGFVPFNYLRETTESLAREQEEGSRGIGRESGGMSTASMTLQPSAVPRETSVTFTSGALDYGDRLQNMYGVGASAPSPVSQRSRSAEQGMKRVNENSMATATKGAVMEPLLPSQKVPSSPPSGADPVPERSLLNNPSAIVEAFMKNELHFKQLIRQRQDALAQMRTTVEEAMSELAACKEKNFTLARKLRELDQSVEKERGRWKERIMEEKAYISRSMSSE | soluble
6 | MAHHHHHHMSAAAADYPLRRGGDVEDDVDDEERRRLTESSIKAFLEEEGVPVRSSVTVEDITSALVALANSVATASACLAVKVALLRLDCLTAVEGELRKDATRASSSKVRVTAEKSPSPRMTRASAFGWLRHLHQEGKGVCGVLRGGKAELGFVLASFVEEALLFAAMRSLMDRLGPLLPSENGRAGGAAALWWAGLSRTVAPTFVMSLLSWPLRAVRTTIRVNYMADTSLPVCEPSLQPAQQQGEQQQRRQHRYTSATEVWGCVLHRMGVRSLLLNGLDVDFASRALSLGLAWTVVKPASRWMQRWAMMSASTAGAASAPLALVRLGQHRLFALGVLLAVAGSVNALQRPFVVLRQRMALLPVADAESVCNGDDDQTKTPPTARRGCRYANGWDCAVQVWRQEGVSGLLAGLPLCLITSSVVPLLRTFAGYPTAPSFSGAVV | not soluble
7 | MAHHHHHHMSAVLMAAVKVWTGNVRACLRVHHDTRTFCKAMKMRNLPVVLLDGVRFASLESVQHGKVRTRKDVVSGDLCVAIRKLNGVELMDDVQPRDPAIFLRDEKSKTFSAEEAREIYSIIVKSLSHILVVDSEVKTVECGIKRIMGNSTATEPETPKLTDLIRWLKSNMSTHDVLPIFSTQDRTVTFFVNQKIFRRIGHSDNGRRKK | not soluble
8 | MAHHHHHHMSCITSPPQPSSPPRMDAHTCVCIGITMPPAARQRKGARRSLTLPLLSLPWRKIRDQEGGAVCAGPVQQLPWKVRAEAALQSRPSPPAIRRRYLALSLPMRTSAAAAVAAAAHAGVRALHTATGVAGNSCGASPRATVALPPHSGLTLPSFTRCGASSAAFITRAHSVGCCGCAAAVKQHRLYSSHGCSSNSSGSFADSSRPYVPGQAVQETYPIIQLPARSLWCRQYALDARRVAQGEYAGLISQVREARHYYQYPSMSAPQTGWNVQMFTLFDNSVFINPVNLDEEVWRAEAARQGMSWVAFEEEKMRELRAEGLTGFAWEPCASSGFLLHYIERPLTVRMRALDEHGKPFTVTLDKMRARMALHELDHLQGVLFTRRVVDTDHVVPMEGFVTMSDWSDDYPSLEARSTFLYTIFTPPYHFVSDAVPDGNLLDRKFEDGIYPGCEQDRQQRIELTAMEEIQRNVWRKEKAKRKEGGQQCGRGDVTAVEDDDGSGAAGAR | not soluble
9 | MAHHHHHHMSDAFEARMSAMRARLSSLCHTVEEQEVEQQQQRRSFEHRYFVEARAAGSAATPAATKPITSTATPPSSAPISRPVTSKSQVPRTDGISERDVNQVHSASRKDAAFGHHFGTSSPSASITRARAAKPGSGVNAMLQLARYHASGSWSEAVVTKDIVRFTGGRSSPVPKAPATIPPEAFAVNTGQDTTDSSPVPLMPCGVAGLHSYGFRERLPSPRRPTASLAANTVDLASRNGEGRTSQNTPREESCITAADTTIVDTMHADEATSFDAFRVVQERLRQKMMQLTTTSPHSVVPLSTRGAPAEFAVSDDATAPREELPHRGLTASRAVSDVDGSSPSPRPPPGTRAETATPTRSPDKDESSSHETAPLPQTTPRYQHGQGDTWTDVEVLPATTEPDTENATEARLFTHGSLHDSVVGSGDETTAVSREWQWSRCGVPSTKARTANVPRGVFDPTVRHVRVSRMPSSDAQLNPAAGEQRADSREYRRSPEAATAGRAHSDRGRSGRTTASIQHGVSSAPRRSGSRHAPSSTSAARWSATREGSVSTAARSRKSAPKPAARPKPISLNVEATILCPVTGAELFALLRMRGLIDSEGDTAEYRLPPVRCHRLYVTAEEHRQLKLLRQSLHSLVAEEQHQDIPSYQRFTVSARSRNAEFAPPPPVLRYMDV | not soluble
10 | MAHHHHHHMSDHEMYDNIDAGASQTYPVQAGAIKKNGHVMLKEHPCKVVDYSTSKTGKHGHAKAHIVGIDIFTGRKYEDICPTSHNMDVPVVKRTELQLIDITEDGFVSLLYDNGDTKDDLSLPKDTEGNLDEVAKQIRNLFDNGKSVLVSVLSACGQEKIIAAKELSS | soluble
11 | MAHHHHHHMSDQINVKHKIGDTCRKLYSYFKTVNNTSTFIQNGTLTPSEFVDSGDFLVYKFKTWEWQEADKDRVVPYLPENKQFLITKNVPCKQRIKDLNNIVHDLIMIGYSQVMKKITIPQIYMNIYLIVNTQLMTKMYKMYKITSCYSKNMLHDSNSFKNNFIIIIKNFTCLNIITYDKYYQTPRIWLFGYNENGDPLKSEEIFEDILSDYSYKTVTVKIKIIFMILIRVLVHAEAILNVVNNWISEEKEPRIKKRINVYMYVFCFRHDLYLLFLLKFISGVIPTIEYDFTTDIEIPRDSNAGL | not soluble
12 | MAHHHHHHMSFKQVFLRDNEECQAFPWDALTHPSQSAGEERRTIHHHLAWPAVCEREEAVMGTQPARKVSELTSVSFFLQPPFAIPRRKTGRSSLGCRHDRPLYAAGSAGPRCGDKPTLFVGAAEADFCDDMGWRQRSNSPVSSVEHNAEDDGEDFDVEPVVLKRSLSEKDRRKRLHLSEMSARLCHAFAMKPFRLACGLGLDESDDGVGMENQSGWGAGEEAAVPLREKDDDDDTTPARQTAPISETQRGNTALNFTDNDLSVVRAIALALMEEGEKKRRQEMRRKTN | not soluble
13 | MAHHHHHHMSFVKGAIHVSILNNYMDFYKESTVDKIETSFSIRNNNESNTKNNEKRKSSLCIMNDEEKMKNKISKCIKNNNLYKNKKKRRKEKNIISNKSRSKKFLKFNIKGKDKKNNINSNIYNNANNNKLKIKNKNNNNNNNNNKINSCCRNVYKGSTNKRNSKLLLNGEIKHDEIFHTNIDNSFICMNKNDMNLIRKCKENNHPIKQMNTKIKKKKYNKKNVLISKQINKEIQMLKSNNSYIMYHMNEKRNIEKEKKKKKCKKIVKSILYNRKRSHYYISNFLKTCMKIKNNKIQKKLKKYVYLKDIYSTINMSNKQTCNNLNEQNKSQFFFDDLQKVRQVNKCDNKLYKMNFKSLKHQTNGKKNNIKENDNNNNFYNEDNSIAEILSDDYIILNKNKSNKMENKIYNNVINHRHSSEDIYLNHSKSKENNNNLVNSYVMKENNMEDKELMNDNEKKEGQLILKNVNKKIQLCNESKLDNEKKNKGDNIKLGNTKNKDNIYKYLNVLSINKLIKGETYLEKRTKKSDNSNEHKNDNIYDDKKIKYKSVENDTSELLDKNIDNSNFFDEANEKKKKLKKKKMNTCVNKNVMDYVNEDEYYLEERVKKKRKKKKKDNKKYNIKNKNESEEIFEDVSSTNSCIDSNNSGTFIYDEEICKHVINKGNIISNNNNNNNNNNYIVLTGNEKNMNAEEISEYITKQGLNFKEYLIWKEIKIKESKELIHLNLDSSFSVSKGAGLYNYGQNICFFNSIIQAIIRIPYICKDLLNKLHSINCEKRKKKTFCFYCLFEQFACNIISKKSVIKNVLIPYIKKYMCNSYHIGYQEDVHEYLRYFLNSLEKTSFFSSIYIQKMFTGVSKNVTICMNCNNVSLKYEQYYELSLDISSSNNLEDALKHFLSKEMLAGENGYYCEKCKKKKKATKQCVINKLPRVLTIQIKRFFMNSNFDIVKNHKNISYPLYLDMKYYVNNYDLFENNFNNNVISLYEKMNKTNCVGSTTNGPNKKNNKIYHQNNSCNIKSNNHFVHTNYNNKGQNILTPEKLTQQNIIPEHSFSKNKVNYENDFFLNNMNKKRECSNDDIISNINKNENIFFNNKDKEYMINEKYMNTNQCIKLRGGNHNINMHVLKIIENILIDLKESMCQKQIQNKLTSKVLRNMIREKKKLLIKQLKKIKFSKLYKDISLRISKDIDMLYYYFKVNRENDQFKKIIYKYKIDYYEYYVGSTNINADFINYNHNFDSPAKDHHNNNPHQNNDENNNRHSNVNFKEGNAKNSNKKNNYFSFELTGLIKHIGSGTDYGHYIALTKSNNNIYLQCDDNHISYINKKDILNCVKNAYVFIYTCINPEFIDFYNKYVDVLEKKNFDINLPVFEKRVKFKERITMPKEKFINKSLCY | not soluble
14 | MAHHHHHHMSGDLLEILGESRNWVLKRHRVLGKGGFGCATLYEEVHTPGSFVVVKDINMQIMKKEEEMKAVEMEVAILRRSCGHPNIVQFLDYYHDGQFMMYIVMEYCEGGDLARLEEQMQFRVFHQPERFVASILIQMLVGLYYLHVDQHTLHRDIKPQNVFLCSDGTIRIGDFGVSTVLNQYGCRAKAVCGSPFYMAPELCEEKAYDGKADLWSLGVMMYELMVLERPFNAKSIPALTRQIIHGEFSPIPRELHYSAQLVEMVESFLQTSPTARPTLRRVLRSSYVHSHLDCVPIVCLLSDHYARLFGEELLQQILQKHKDSTNTTSQVTTVVSRNSASVQEVERCKNHSDHSDSASAQPLAHQEISELEQWLEANGDVTDAFIDAQLPRNRADGQELSNSPSDIGRAVKTGRVFSDDIMDDSISSEQGKGQQAEDDVRDDFYEDDFESESSG | soluble
